What was measured:
[1] = target: T1, human TNFR1-Fc fusion protein (human, UniProt P19438 29-211); assay: QCM, human TNFR1-Fc, moderate receptor density (86 Hz), biphasic fit, KD2 (high-affinity part)
T1 construct: range 29-211; Made in stably transfected HEK293 cells; coated on ELISA plates or immobilised on QCM chips; also called huTNFR1-Fc; human TNFR-Fc; not shown: Fc part from vector pSecTagL1-Fc
T1 sequence (looked up): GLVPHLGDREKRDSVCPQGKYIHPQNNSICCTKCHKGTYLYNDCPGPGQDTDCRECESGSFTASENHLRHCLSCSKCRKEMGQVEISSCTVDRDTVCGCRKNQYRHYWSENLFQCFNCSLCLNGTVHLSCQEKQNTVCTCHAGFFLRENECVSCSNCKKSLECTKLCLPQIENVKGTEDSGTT
Experimental: Real-time binding dynamics in protein-protein interactions were determined by quartz crystal microbalance measurements (A-100 C-Fast or Cell-200 C-Fast, Attana, Stockholm, Sweden). One of the binding partners (ligand, e.g. TNFR1-Fc) was chemically immobilized on a carboxyl sensor chip according to the manufacturer's protocol at different densities (nearly 200 Hz in the case of saturating conditions to confirm previously published results and 50-100 Hz, in particular at about 50 Hz, to establish conditions of lower receptor density, better resembling the situation on the cellular surface). Binding experiments were performed with samples (analyte) diluted in PBST (PBS, 0.1% Tween 20) at pH 7.4 with a flow rate of 25 µl/min at 37° C. The chip was regenerated with 25 µl 5 mM NaOH or 20 mM glycine, pH 2.0. Every third measurement, an injection of running buffer was measured which was subtracted from the binding curve. Data were collected using the software provided by Attana for the particular device and analyzed by Attaché Office Evaluation software (Attana, Stockholm, Sweden) and TraceDrawe (ridgview instruments, Vange, Sweden).

[2] = target: T2, mouse TNFR1-Fc fusion protein (mouse, UniProt P25118 30-212); assay: ELISA on coated receptor-Fc fusion proteins, one antibody concentration (not given on the sheet)
T2 construct: range 30-212; also called moR1; not shown: Fc part from vector pSecTagL1-Fc
T2 sequence (looked up): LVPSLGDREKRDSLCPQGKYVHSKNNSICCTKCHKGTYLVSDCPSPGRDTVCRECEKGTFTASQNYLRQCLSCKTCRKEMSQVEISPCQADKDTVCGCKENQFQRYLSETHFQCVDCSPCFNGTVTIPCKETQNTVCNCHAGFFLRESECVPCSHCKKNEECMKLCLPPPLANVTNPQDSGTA
Experimental: (§1) FIG. 12. Species selectivity of scFv13.7 derivatives. […] Presented are mean and SD of two individual experiments.
(§2) Microtiter plates were coated with 100 µl of the indicated protein (1 µg/ml in PBS, see Table 3.3) and incubated at 4° C. over night. The residual binding sites were blocked with 2% MPBS (skim milk in PBS, 200 µl per well) at room temperature for 2 hours and subsequently washed twice with PBS. 100 µl of the samples diluted in 2% MPBS were incubated at room temperature for 1 hour prior to the last incubation step with 100 µl of the HRP conjugated detection antibodies in 2% MPBS. In the case of competition experiments, both analyzed protein samples were prepared individually (either titrated or diluted to a single concentration) and mixed before they were applied to the plate. Bound protein was detected with 100 µl TMB substrate solution, the HRP-reaction was stopped by the addition of 50 µl 1 M H2SO4 and the absorption at the wavelength of 450 nm was measured using the Infinite microtiter plate reader (TECAN, Maennedorf, Switzerland). Between each incubation step and in advance of the detection, the plates were washed three times with PBST and twice with PBS.

[3] = target: T3, mouse TNFR2-Fc fusion protein (mouse, UniProt P25119 23-258); assay: as above
T3 construct: range 23-258; not shown: Fc part from vector pSecTagL1-Fc
T3 sequence (looked up): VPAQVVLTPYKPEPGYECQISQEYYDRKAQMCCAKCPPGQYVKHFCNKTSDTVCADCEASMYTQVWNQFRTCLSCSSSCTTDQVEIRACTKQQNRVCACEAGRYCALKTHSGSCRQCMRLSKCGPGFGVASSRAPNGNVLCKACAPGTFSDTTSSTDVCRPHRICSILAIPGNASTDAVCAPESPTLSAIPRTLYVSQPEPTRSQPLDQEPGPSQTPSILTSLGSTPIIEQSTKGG
Experimental: as §1, §2

[4] = target: T4, human TNFR2-Fc fusion protein (human, UniProt P20333 23-257); assay: as above
T4 construct: whole entry named; also called huTNFR2
T4 sequence (looked up): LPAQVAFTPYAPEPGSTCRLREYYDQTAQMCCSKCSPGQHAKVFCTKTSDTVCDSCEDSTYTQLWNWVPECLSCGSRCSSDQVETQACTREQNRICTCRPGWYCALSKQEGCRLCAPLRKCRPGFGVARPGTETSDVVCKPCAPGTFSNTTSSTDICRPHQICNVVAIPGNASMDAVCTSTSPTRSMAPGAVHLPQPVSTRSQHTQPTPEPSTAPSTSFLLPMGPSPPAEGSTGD
Experimental: as §1, §2

[5] = target: T1, human TNFR1-Fc fusion protein; assay: ELISA on coated huTNFR1-Fc, antibody titrated, signal as Binding [%]
Experimental: FIG. 13. […] Increasing concentrations were tested for their binding to huTNFR1-Fc in ELISA (n=3, mean±SD).
as §2

B1: ATROSAB (antibody, IgG1, V domains shown)
VH: QVQLVQSGAEVKKPGSSVKVSCKASGYTFTDFYINWVRQAPGQGLEWIGEIYPYSGHAYYNEKFKARVTITADKSTSTAYMELSSLRSEDTAVYYCARWDFLDYWGQGTTVTVSS
VL: DIVMTQSPLSLPVTPGEPASISCRSSQSLLHSNGNTYLHWYLQKPGQSPQLLIYTVSNRFSGVPDRFSGSGSGTDFTLKISRVEAEDVGVYYCSQSTHVPYTFGGGTKVEIKR
notes: Humanized full-length IgG1 with a modified Fc region deficient in mediating effector functions (made according to WO2012035141); also called full length IgG ATROSAB
Kd [1]: 0.38 nM | binding result [2]: no binding | binding result [3]: no binding | binding result [4]: no binding | EC50 (read off the curve) [5]: ~1 nM

— patent publication US10689452 (UNIVERSIT T STUTTGART, dated 2020)
